Assay results taken from patent publication US20220259268A1.

Target: neutral avidin (UniProt P02701)
Assay: dynamic light scattering; each protein alone peaks near 10 nm

Sequence of neutral avidin (P02701 25-152): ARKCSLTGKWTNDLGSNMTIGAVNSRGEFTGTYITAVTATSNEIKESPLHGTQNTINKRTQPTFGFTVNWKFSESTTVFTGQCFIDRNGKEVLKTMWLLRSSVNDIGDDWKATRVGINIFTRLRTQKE

Nhead recombinant protein (AtaA59-325-GCN4pII-His)
particle size at the peak of the mixture (DLS): > 1000 nm
